assay: yeast display, Sf9 membrane polyspecificity reagent, FACS + sequencing; frameworks hold sequencing errors
Summary of the method: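 After 36–48 hours of galactose induction, yeast (Saccharomyces cerevisiae BJ5465) displaying a synthetic nanobody library were stained at 4 °C for 1 hour with 10% biotinylated, detergent-solubilized Sf9 membrane reagent. Streptavidin microbeads enriched the stained cells before FACS sorting into low and high (top ~1%) gates on anti-HA and streptavidin fluorescence. Each clone's polyreactivity label reflects its gate of origin.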

**Q.** For “QVQLVESGGGLVQAGGSLRLSCAASGFTFDSYAMGWYRQAPGKERELVAAMSYRGGTTYYADSVKGRFTISRDNAKNTGYLQMNSLKPEDTAVYYCNRLWKYGYNYWGQGTQVTVSS”, which “polyreactivity (PSR sort gate)” value is on record?
**A.** The value was “high polyreactivity”.

**Q.** For “QVQLVESGGGLVQAGGSLRLSCAASGFTFDSYAMGWYRQAPRKERELVAAITSDGSTYYADSVKGRFTISRDNAKNNVYLQMNSLKAEDTAVYYCAADGISLYATAYDYWGQGTQVTVSS”, which “polyreactivity (PSR sort gate)” value is on record?
**A.** Its value is “low polyreactivity”.

**Q.** Which “polyreactivity (PSR sort gate)” value does the source give for “QVQLVESGGGLVQAGGSLRLSCAASGFTFDWNSMGCYRQAPGQERELVATIRWSVGSTYYADSVKGRFTISRDNAKNTVYLQMNSLKPEDTAVYYCAADSQWSYPDYPGEYAYDYWGQGTQVTVSS” here?
**A.** Its value is “low polyreactivity”.

**Q.** Which “polyreactivity (PSR sort gate)” value does the source give for “QVQLVESGGGLVQAGGSLRLSCAASGFTFDWYAMGWYRQAPGKERELVAAMYYADSVKGRFTISRDNAKNTVYLQMNSLKPEDTAVYYCNAGGYFFPTVYHYGYWGQGTQVTVSS” here?
**A.** The value was “low polyreactivity”.

**Q.** Which “polyreactivity (PSR sort gate)” value does the source give for “QVQLVESGGGLVQAGGSLRLSCAASGFTFDYNAMGWYRQAPGKDRELVAAISESGGSTYYADSVKGRFTISRDNAKNTVYLQMNSLKPEDTAVYYCPTDFPVYYDYGYWGQGTQVTVSS” here?
**A.** Its value is “high polyreactivity”.

**Q.** Which “polyreactivity (PSR sort gate)” value does the source give for “QVQLVESGGGLVQAGGSLRLSCAASGFTFDYNPMGWYRQAPGKERELVAAISNTGDSTYYADSVKGRFTISRDNAKNTDYLQMNSLKPDDTAVYYCAADCLFDVYWEYDYWGQGTQVTVSS” here?
**A.** The value was “low polyreactivity”.

**Q.** With “QVQLVESGGGLVQAGGSLRLSCAASGFTFDYYAMGWYRQAPGKERELVAVITSRGGSTFYADSVKGRFTISRDNAKNTVYLQMNSLKPEDTAVYYCARQHYRLFRPYDYWGQGTQVTVSS” as the sequence, how does the “polyreactivity (PSR sort gate)” value read?
**A.** Its value is “high polyreactivity”.

**Q.** With “QVQLVESGGGLVQAGGSLRLSCAASGFTFDYYTMGWYRQAPGKERELVATITRSAGRTYYADSVKGRFTISRDNAKNTVYLQMNSLKPEDTAVYYCNADAYVYFDDGDYWGQGTQVTVSS” as the sequence, how does the “polyreactivity (PSR sort gate)” value read?
**A.** The value was “low polyreactivity”.

**Q.** For “QVQLVESGGGLVQAGGSLRLSCAASGFTFEDYAMGWYRQAPGTERELVAAISSRGTSTYYADSVKGRFTISRDNAKNTVYLQMNSLKPEDTAVYYFNKRGWYPYGYWGQGTQVTVSS”, which “polyreactivity (PSR sort gate)” value is on record?
**A.** The value was “high polyreactivity”.

**Q.** For “QVQLVESGGGLVQAGGSLRLSCAASGFTFEENAMGWYRPAPGKERELVAAINWSGGNTYYADSVKGRFTISRDNAKNPDSLQMNSLKPEDSAVYYCNAAGAGDDYDYWGQGTQVTVSS”, which “polyreactivity (PSR sort gate)” value is on record?
**A.** The value was “high polyreactivity”.

**Q.** For “QVQLVESGGGLVQAGGSLRLSCAASGFTFEGYAMGGYRQAPGKERELVAAINGSGGSTYYADSVKGRFTISRDYAKNTVYLQMNSLKPEDTAVYYCAKSGYGNRGFDYWGQGTQVTVSS”, which “polyreactivity (PSR sort gate)” value is on record?
**A.** Its value is “low polyreactivity”.

**Q.** Which “polyreactivity (PSR sort gate)” value does the source give for “QVQLVESGGGLVQAGGSLRLSCAASGFTFEKNAMGWYRQAPGKERELVAAISRGGSTYADSVKGRFTISRDNAKNTVYLQMNSLKPEDTAVYYCAGDTVYIFSSAINGEFGYWGQGTQVTVSS” here?
**A.** Its value is “low polyreactivity”.

**Q.** For “QVQLVESGGGLVQAGGSLRLSCAASGFTFERNAMGWYRQAPGKERELVATISQSGTNTYYADSVKGRFTISRDNAKNTVYLQMNSLKPEDTAVYYCNARYLFYRYDYWGQGTQVTVSS”, which “polyreactivity (PSR sort gate)” value is on record?
**A.** Its value is “low polyreactivity”.

**Q.** For “QVQLVESGGGLVQAGGSLRLSCAASGFTFEYYAMGWYRPAPGKERELVADITTSSAGTYYADSVKGRFTISRDNAKNTVYLQMNSLKPEDTAVYYCNRDDLNTGEDLDYWGQGTQVTVSS”, which “polyreactivity (PSR sort gate)” value is on record?
**A.** The value was “low polyreactivity”.

**Q.** With “QVQLVESGGGLVQAGGSLRLSCAASGFTFFDYVMGWYRQAPGKERELVAAISSSGGSTNYADSVKGRFTISRDHAKNTVYLQMNSLKPEDTAVYYCNKVTYGYAYWRYDGYDYWGQGTQVTVSS” as the sequence, how does the “polyreactivity (PSR sort gate)” value read?
**A.** The value was “low polyreactivity”.

**Q.** For “QVQLVESGGGLVQAGGSLRLSCAASGFTFFIYAMGWYTQAPGKEREFVAAITGSGGSTYYADSEKGRFTISRDNAKNTVYLQMNSLKTEVTAVYYCATGYWGRRRGGWRSGYWGQGTQVTVSS”, which “polyreactivity (PSR sort gate)” value is on record?
**A.** Its value is “high polyreactivity”.

**Q.** With “QVQLVESGGGLVQAGGSLRLSCAASGFTFFKYAMGWYRQAPGKERELVAAISSSGGSTYYADSVKGRFTISRDNAKNTVYLQMNSLKPEDSAVYYCNRPAAVYFKLVTAYDYWGQGTQVTVSS” as the sequence, how does the “polyreactivity (PSR sort gate)” value read?
**A.** Its value is “high polyreactivity”.

**Q.** With “QVQLVESGGGLVQAGGSLRLSCAASGFTFFLNAMVWSRPAPGKERELVAAITYSGDSTYYADSVKGRFTISRDNAKNTVYLQMNSLKPEDTAVYYCAAASKFGLYEYEYWGQGTQVTVSS” as the sequence, how does the “polyreactivity (PSR sort gate)” value read?
**A.** Its value is “low polyreactivity”.

**Q.** With “QVQLVESGGGLVQAGGSLRLSCAASGFTFFLYTMGWYRQAPGKERELVATITSAGTTNYADSVKGRFTISRDNAKNTVYLQMHSLKPEDTAVDYCNADRWEYDYWGQGTQVTVSS” as the sequence, how does the “polyreactivity (PSR sort gate)” value read?
**A.** Its value is “low polyreactivity”.

**Q.** Which “polyreactivity (PSR sort gate)” value does the source give for “QVQLVESGGGLVQAGGSLRLSCAASGFTFFSKYVMGWYSQAPRKERELVAAISSSGGTTYYADSVKGRFTISRDNAKNTVYLQMNSLKPEDTAVYYCAARLVSSTFQYNMYYWGQGTQVTVSS” here?
**A.** The value was “high polyreactivity”.

**Q.** Which “polyreactivity (PSR sort gate)” value does the source give for “QVQLVESGGGLVQAGGSLRLSCAASGFTFFSNAMGWYRQAPGKEREFVASISRSGGRTYYADSVKGRFTISRDNAKNTVYLQMNSLKPEDTAVYYCAADVPYYLHNHRYGYWGQGTQVTVSS” here?
**A.** The value was “high polyreactivity”.

**Q.** For “QVQLVESGGGLVQAGGSLRLSCAASGFTFFYYVMGWYRQAPGKERELVAAISSGGSTYYADSVKGRFTISRDNAKNTVYLQMNSLKPEDTAVYYCNAVYRSTWWGYDYWGQGTQVTVSS”, which “polyreactivity (PSR sort gate)” value is on record?
**A.** Its value is “high polyreactivity”.

Reference: the nanobody polyreactivity screen of Harvey et al. (2022)
